Data set [1] has as its target hGHR-Fc (human) (UniProt P10912). Briefly: ELISA. Background: In an ELISA, binding on a coated surface is turned into a signal by an enzyme label.
The target of data set [2] is AC299 (FIX-XTEN_AE864 with an XTEN release site specific for FXI) (UniProt P00740).
The target in data set [3] is AC296 (FIX-XTEN_AE864 that lacks an XTEN release site) (UniProt P00740).
Data set [4] deals with AC300 (FIX-XTEN_AE864 with an XTEN release site specific for thrombin) (UniProt P00740).
Data set [5] deals with glucagon receptor (UniProt P47871 26-477, limits assumed). The data set can be described thus: cell-based or functional assay.

The EC50 is the concentration that produces a half-maximal response. A high value points to weaker potency.

Sequence of hGHR-Fc (human) (P10912 19-264): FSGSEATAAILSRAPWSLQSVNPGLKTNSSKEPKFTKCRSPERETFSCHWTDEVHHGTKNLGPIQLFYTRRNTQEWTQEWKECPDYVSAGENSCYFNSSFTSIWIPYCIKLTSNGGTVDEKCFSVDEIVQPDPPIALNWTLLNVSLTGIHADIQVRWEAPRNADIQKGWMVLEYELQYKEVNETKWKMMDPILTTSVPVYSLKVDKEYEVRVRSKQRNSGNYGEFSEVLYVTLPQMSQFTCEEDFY

AE912-hGH-AE144 gave an EC50 in data set [1] of 16.2 nM.

“immobilized thrombin (Thrombin CleanCleave Kit, RECOM-T, Sigma)”: the Clotting activity (ng/ng), with thrombin in data set [2] amounted to 0.02 ng/ng; in data set [3], 0.01 ng/ng; in data set [4], 0.8 ng/ng.

B1: glucagon-Y288 (other)
chain: HSQGTFTSDYSKYLDSRRAQDFVQWLMNTGEGSGEGSEGEGSEGSGEGEGSEGSGEGEGGSEGSEGEGGSEGSEGEGGSEGSEGEGSGEGSEGEGGSEGSEGEGSGEGSEGEGSEGGSEGEGGSEGSEGEGSGEGSEGEGGEGGSEGEGSEGSGEGEGSGEGSEGEGSEGSGEGEGSGEGSEGEGSEGSGEGEGSEGSGEGEGGSEGSEGEGSEGSGEGEGGEGSGEGEGSGEGSEGEGGGEGSEGEGSGEGGEGEGSEGGSEGEGGSEGGEGEGSEGSGEGEGSEGGSEGEGSEGGSEGEGSEGSGEGEGSEGSGE
For B1, in data set [5], the “EC50, real-time calcium mobilization (FLIPR)” value came out at 72 nM.

Source of the values: patent US20170037088A1 (published 2017).
